Assay results reported in paper PMC5909903, “Impact of selected amino acids of HP0377 (Helicobacter pylori thiol oxidoreductase) on its functioning as a CcmG (cytochrome c maturation) protein and Dsb (disulfide bond) isomerase” (PLoS ONE, 2018).

How the values were obtained:
[1] = target: apocytochrome c (HP1227) (Helicobacter pylori) (UniProt O25825); experiment: SEC; lysates of E. coli overexpressing HP0377 CSYA and HP1227 mixed, overnight at 37°C, Ni IMAC, then ENrich SEC70 in 20 mM Tris pH 8, 150 mM NaCl; fractions on SDS-PAGE with or without DTT; covalent (disulfide) complex
[2] = target: the molecule itself; experiment: cross-linking; glutaraldehyde (0.001-0.1%) on purified truncated HP0377 at 2.5 mg/ml, SDS-PAGE

Molecule	stoichiometry N (HP0377 per apocytochrome c) [1]	stoichiometry N [2]
HP0377 with the CSYC motif changed to CSYA (C92A), amino acids 25-221, His6 fusion (from UniProt O25140 25-221) (enzyme)	2	
HP0377 (Helicobacter pylori thiol oxidoreductase), amino acids 33-221 (domain or fragment, Helicobacter pylori strain 26695, UniProt O25140 33-221, looked up, HP0377 (CcmG family thiol oxidoreductase), Helicobacter pylori 26695, amino acids 33-221 of the native HP0377; the variant previously analysed by Yoon et al. [16]; also called 33-221 variant of HP0377; N-terminal-shortened HP0377; source: E. coli, purified) LDENLLSSGSQSSKELNDERDNIDKKSYAGLEDVFSDNKSISPNDKYMLLVFGRNGCSYCERFKKDLKNVKELRDYIKEHFSAYYVNISYSKEHDFKVGDKNNEKEIKMSTEELAQIYAVQSTPTIVLSDKTGKTIYELPGYMPSTQFLAVLEFIGDGKYQDTKDDEDLTKKLKAYIKYKTNLSKSKSN		2
HP0377 (Helicobacter pylori thiol oxidoreductase), amino acids 25-187 (domain or fragment, Helicobacter pylori strain 26695, UniProt O25140 25-187, looked up, HP0377 (CcmG family thiol oxidoreductase), Helicobacter pylori 26695, amino acids 25-187 of the native HP0377; also called 25-187 variant of HP0377; C-terminal-truncated HP0377; source: E. coli, purified) CKSNNKDKLDENLLSSGSQSSKELNDERDNIDKKSYAGLEDVFSDNKSISPNDKYMLLVFGRNGCSYCERFKKDLKNVKELRDYIKEHFSAYYVNISYSKEHDFKVGDKNNEKEIKMSTEELAQIYAVQSTPTIVLSDKTGKTIYELPGYMPSTQFLAVLEFI		2
